The values that follow come from patent US20230355708A1 (published 2023).

Read-outs that look alike come from different tables or passages of the source.

The target in experiment [1] is Yu2 gp120. Kind of experiment: SPR.
Experiment [2] deals with Yu2 gp120. Kind of experiment: SPR. This is another data set of the same source.

B1: CVN (other)
chain: LGKFSQTCYNSAIQGSVLTSTCERTNGGYNTSSIDLNSVIENVDGSLKWQPSNFIETCRNTQLAGSSELAAECKTRAQQFVSTKINLDDHIANIDGTLKYE
B1: the Kd in experiment [1] and in experiment [2] was 0.622 nM each time.
